Laboratory results from the nanobody polyreactivity screen of Harvey et al. (2022).

test: yeast display, Sf9 membrane polyspecificity reagent, FACS + sequencing; frameworks hold sequencing errors
How it was run: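 A synthetic nanobody library was expressed on Saccharomyces cerevisiae BJ5465 by galactose induction for 36–48 hours. The library was stained for 1 hour at 4 °C with 10% biotinylated, detergent-solubilized Sf9 membrane reagent and enriched with streptavidin microbeads before FACS. Low and high (top ~1%) gates were set on anti-HA fluorescence for expression and streptavidin fluorescence for reagent binding, and each polyreactivity label reflects the gate of origin.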

Sequence	polyreactivity (PSR sort gate)
QVQLVESGGGLVQAGGTLRLSCAASGRTFVPYAMGWYRQAPGKERELVATISSSGGSTYYADSVKGRFTISRDNSKNTVYLQMNSLKPEDTAVYYCATADRWSSSYYRSVRWYHYDYWGQGTQVTVSS	low polyreactivity
QVQLVESGGGLVQAGGTLRLSCAASGRTIRNYARGRYRQAPVKERELVAAITWSGGSTYYADSVKGRFTISRDNAKNTVYLQMNSLKPEDTAVYYCNVRYYTRTYNYWGQGTQVTVSS	high polyreactivity
QVQLVESGGGLVQAGGTLRLSCAASGSIFNPYAMGWYRQAPGKDRELVATITRPGRTNYADSVKGRFTISRDHAENTVYLQMNSLKPEDTAVYYCAAYTSYGVYYWGQGTQVTVSS	high polyreactivity
QVQLVESGGGLVQAGGTLRLSCAASGSIFYGNAMGWYREAPGKERQLVAAIDGTGASTYYADSVKGRFTISRDNAKNPVYLQMNSLKPEDTAVYYCNKALTSKDYPVRTVERDYWGQGTQVTVSS	low polyreactivity
QVQLVESGGGLVQAGGTLRLSCAASGSTFRYNAMGWYRQEPGKEWELVAAITDSGSSTYYADSVKGRFTISRDNAKNTVYLQMNSLKPEDTAVYYCAAAGSRYAWGYVYWGQGTQVTVSS	high polyreactivity
QVQLVESGGGLVQAGGTLRLSCAASGSTFSYNAMGWYRQAPGKERELVAAISGSGGRTYYADSVKGRFTISRDNAKNTVYLQMNSLKPEDTAVYYCAARVGAGWSPKYDYWGQGTQVTVSS	high polyreactivity
QVQLVESGGGLVQAGGTLRLSCAASGSTFVYNAMGWYRQAPGKERDLVATITGGGSTYYADSVKGRFTISRDNAKNTVYLQMNSLKPEDTAVYYCSKRRDSYDVEYDYWGQGTQVTVSS	low polyreactivity
QVQLVESGGGLVQAGGTLRLSCAASGYIFVIYAMGWYRQAPGKEREWVAAISWSGDTTYYADSVKGRFTISRDNAKNTVYLQMNSLKPEDTAVYYCNAETAYYQVDYWGQGTQVTVSS	low polyreactivity
QVQLVESGGGLVQAGGTLRLSCAPSGSIFGDYVMGWYRQAPGKEWELVAAINRGGSTYYADSVKGRFTISRDNAKNTVYLQMKSLKPEDTAVYYCAAGYPSWYYGYPYDSWGQGTQVTVSS	low polyreactivity
QVQLVESGGGLVQAGGTLRLSCAPSGSTFFPYAMGWYRQAPGKEREFVSAIRGSGGVSTYYADSVKGRFTISRDNAKNTVYLQMNSLKPEDTAVYYCAKYVARRVPRGFYYWGQGTQVTVSS	high polyreactivity
QVQLVESGGGLVQAGGTLRLSCSATGYIFWSYAMGGYRQAPGKERELVAGITASGGSTYYADSVKGRFTISRDNAKNTVYLQMNSLKPEDTAVSYCAVALRSTPRTREVRPSPRVYYWGQGTQVTVSS	high polyreactivity
QVQLVESGGGLVQAGGTLRLTCAASGSIFHWNTMGWYRHAPGKESELFATITQRGGSTYYADSVKARFTLSRDNAKNTVYLQMNSLKPEDTAVYYCAAAIYRASRRRTSYSYDYWGQGTQVTVSS	high polyreactivity
QVQLVESGGGLVQAGGTLSLSCAASGFIFYRTARGWSRQAPGKDRELVAGISRVGSTYYADSVKGRFTISRDNAKNTVYLQMNSLKPEDTAVDYCAARSGYFYGYGYWGQGTQVTVSS	high polyreactivity
QVQLVESGGGLVQAGRRLRLSCAASGSTFGYYAMGWYRQAPGKERELVAAITSGATTNYADSVKGRFTISRDNAKNTVYLQMNSLKPEDTAVYYCAAGFQTRTPLNEFDNWGQGTQVTVSS	low polyreactivity
QVQLVESGGGLVQAGRSLRISCAASGSIFVNNAMGWYRQAPGKERELVAAISLSGGSTYYADSVTGRFTISRDTAKNTVYLQMTSLKPEDTAVYYCATRRSHYGKYDYWGQGTQVTVSS	high polyreactivity
QVQLVESGGGLVQAGRSLRLICAASGFTSHVYAMGWYRQAPGKERELVAAISSGSSTYYADSVKGRFTISRDNAKNTVYLQRNSLKPEDTAVYYCATTHKTLRRYESWGQGTQVTVSS	low polyreactivity
QVQLVESGGGLVQAGRSLRLSCAASGFIFRRYAMGWYRQAPGKEREFVAAISSGDDTDYADSVKGRFTISRDNAKNTVYLQMNSLKPEDTAVYYCAADHRYSVKYYYWGQGTQVTVSS	low polyreactivity
QVQLVESGGGLVQAGRSLRLSCAASGFIFSGNVMGWYRQAPGKERELVAAITSSGGSTYYADSVKGRFTISRDNAKNTVYLQMNSLKPEDTAVYYCATRYGGRYYWGQGTQVTVSS	high polyreactivity
QVQLVESGGGLVQAGRSLRLSCAASGFTFGYYAMGWYRQPPGKERELVAAISWNGGRTYYADSVKGRFTISRDNAKNTVYLQMISLKPEDTAVYYCAADYRFYSPTQYTYDYWGQGTQVTVSS	high polyreactivity
QVQLVESGGGLVQAGRSLRLSCAASGFTFYYNAMGWYRQAPGKERELVAAISSGGSTYYADSVKGRFTISRDNAKNTVYLQMNSLKPEDTAVYYCAADSLYYRYDFWGQGTQVTVSS	low polyreactivity
QVQLVESGGGLVQAGRSLRLSCAASGITFGRNTMGWYRQAPGKERELVAAIDSGGNTYADSVKGRFTISRDNAKNTVYLQMNSLKPEDTAVYYCAVDGGEFSSYGYWGQGTQVSVSS	low polyreactivity
QVQLVESGGGLVQAGRSLRLSCAASGITFIYYAMGWYRQAPGKESELVAAISKSGGRTYYADSVKGRFTISRDNAKNTVYLQMNSLKPEDTAVYYCNKLVGDDTDLYDYWGQGTQVTVSS	high polyreactivity
QVQLVESGGGLVQAGRSLRLSCAASGRIFSYNAMGWYRQAPGKETELVAAITFSGGRTYYADSVKGRFTISRDNAKNTVYLQMNSLKPEDTAVYYCNAYWQGYGYDYWGQGTQVTVSS	low polyreactivity
QVQLVESGGGLVQAGRSLRLSCAASGSPLYSYAMGWYRQAPGKEREFVAAITSDDGSTYYADSVKGRFTISRDNAKNTVYLPLTSLKPEDTAVYYCATAASVEYNYWGQCTQVTVSS	low polyreactivity
QVQLVESGGGLVQAGRSLRLSCAASGSTFSWNTMGWYRPAPGIERELVAAINSGGSTYYADSVKGRFTISRDNAKNTVYLQMNSLKPEDTAFYYCAARTKYYGRFDYWGQGTQVTVCS	low polyreactivity
QVQLVESGGGLVQAGRSLRLSCAASGSTFWFYAMGWYRQAPGKERELVASINSGGSTYYADSVKGRFTISRDNAKNTVYLQMNSLKPEDTAVFYCAADAYSWWGRWERYPYTTMYYWGQGTQVTVSS	low polyreactivity
QVQLVESGGGLVQAGRSLRLSCAASGSTFYYYTMGWYRQEPGKERELVAAISFIGGSTYYADSVKGRFTISRDNAKNTVYLQMNSLKPEDTAVYYCAAESYPLSYSSATLSPSYEYWGQGTQVTVSS	low polyreactivity
QVQLVESGGGLVQAGRSLRLSCAASGSTLQDNAMGWYRQAPGKERELVAAITLNGGSTYYADSVKRRFTISRDHAKNTVYLPMNSLKPEDTAVYYCAAEYLYVGYWFDYWGQGTQVTVSS	high polyreactivity
QVQLVESGGGLVQAGRSLRLSCAASGSTYSLDAMGWYRQAPGKERELVAAISWSDGSTYYADSVKGRFTISRDNAKNTVYLLMNSLKPEDTAVYYCGADSTVRPYVHSGDYWGQCTQVTVSS	low polyreactivity
QVQLVESGGGLVQAGRSLRLSCAASGYTFSRYTMGWYRQAPGKEWELVAAISSSGGSTYADSVKGRFTISRDNAKNTVYLQMTSLKPEDTGVYYCNRYYRRATKVGDWGQGTQVTVSS	high polyreactivity
